Measured values from the NTF2 design screens of Basanta et al. (2020).

Assay: protease stability score; higher = more stable; yeast display proteolysis, trypsin and chymotrypsin;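 further: log10 excess protease needed over predicted unfolded state with 0 meaning unfolded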

Row | Sequence | protease stability score
1 | DEEINKQIRTMIESRTHGDEEDELRNADPNAKFRIGDKDYHGKEELKKWVKTQHDQAHVEFIIRSVRVHGNKVSMDMQVVLNVNGRPETIDASMSAEVDNGRFKRIDIHLDPDRVRTALQ | 1.16
2 | DEEREVKKRIKHIIRVLENGDEDRAEELADPNTTARVGDKRVHGMNNYMRELARKARRADHVEVTIKHMDLNGEKFDIRLHIVIHVDGRREKFDLRFVITRQGDKHVAVDVQVS | 1.47
3 | DETVEELIKRFMRAIKNNNPDELVRNADKDAKYDIGDKTIHGREQLHDHVEHLRDEMQIDYEVENLKVHNGRADVDVKNNNNHNGRPETKRLRLDVVVHNGKIKDVKFQDTR | 0.243
4 | DEHAARVQHEIQKVQETGDEERVRELVDPNVKIQVGDKTIHGMDEYLTRVKKRMDELRFSVTWRHYDVHNGQVNVKVEFTKDHNGKPQRDVMVMKFHIHNGRVQFLSMEKDQ | 0.843
5 | DEKVQDLVQKFVKWLAQGDHKKLADLLDPNARLHIGEFNVHGREQLREAVTRLQTRMHLSVNRVDASASNGKIKASAKFTVKHNGQPDKKHLNFSAVARGEKVKHMEASDDQ | -0.287
6 | DETNVKNAEEWLRALQDNNSEQLRKLMDKDVRVEIGDDVIKGREDVVTNLIRKARELRFRIKVDKIEDDNGKVVVHAEATFTHNGKPDRVEVELVFSLDNGKIKEVVVKTDG | 1.69
7 | EEEKLEKMVKDVFEAVQKGNMEELKQYLKEDVRFQFGDNRYQGVDQYVKLMKTMTEQGVQFEFKKFQMKDNTVTMETEAKYADHEVRVKAEARYEGGRLDEARVELTEEAKEIYKKG | 1.17
8 | DENDTARKIIKTLLDIMREGDEDKLRDQMDPNVRADVGDKTVHGREHAAKFLAHIVKRADHISITLKSLHNHNGRLRMQAEVRIVHNGRTERVTLEMVFRDHNGKLLIERMKYG | 2.51
9 | DDQLRKKVKTFIRVIQSGNTQEAKKLMDPNARYHVGDKTVDGMDQWATIMTKLKDEMRIQLNVTSVTATNGHIHVRVEVNVDVNGRPINVTVNVYFHIENGRIQRVHYQMDPDEFKHIQR | -0.135
10 | DDEARRVAETVMTAVSRGDEEKVKEMFDPNARFRVGNKEISGRENYADWLRKLQEHARVDVSDVKAKDQGDEVTAKVRFVLSVDGTPHTMNVDVHFSVDNGKIIDYKQRFDEDDLRRILK | -0.155
11 | DEEEAHKFQEAVERNDFEKFVRNADPNAHVQVGDQHIDGHDKMRKQYHDLKRAADKIEYKSIDVQGDKIDVKFTVRFNGREYEVHMQIEVHNGRLKTVKYDATSEHNRTILQEMMS | -0.032
12 | DEEALKFAETFLEVLHKGNPDDLRRLIDENVEIKIGDHEIDGMDNAVKQLHTRIKEINMHIKVDSMKAQGDSIKIHFTREVHRDGRPDTRHATLIMRFNNGELQRFQVDDRQ | 0.335
13 | DEKELQKVLQKVMKLFQNGNIEELQKVVKDDVQLRYADKEYHGPDAVKTVVKRYRDLGAKVEYDELHVEGDKATAKVRADYGGTTVRMKVTYKVTGQKVDRMQVKYDEKAQKQIKHG | -0.142
14 | DEDTIKKLVKRMIDALVKNNTEEARRLLKPDVRFEAVDTEVRGPDQVATYYKKVKDLGVEIRVKEYKVEGNHAKVKYDMRHGGDQITVEAELEAKDSKVDRFRHEDDEKYQKTVKHG | 0.154
15 | DEHLFKRLVDIIKHGNFEELARQADENARVVVGDRTVKGRNEVEELMQRLRQKIDHVQIDHWSRHGDTVTISFVANVNGRRLEFTLMAAFDNGRIHEVVFHSTNEEVTKIMKEILS | 1.93
16 | DEDQQRKWEDWERHLRQNNEEKLVEMFDPNAKWVIGDKRWHGMEEAASKLATRVKNLHIEIRSMRVKVDGDTVEIDVLVTYTHNGQPSEKREILYIHAHNGEVKKVHFEDRE | 0.412
17 | DQDEIRQNARDLATGDPDRAREQADKHVRVEIGEKTLHGREKLEEWMKHIHERIDHNRVHDIQIDNGRVEASVNVDINGKKVVFTIVAEFDNGKIQRVQVDVRDHEVQKVMEEIDS | 0.821
18 | DEEEVKDLDRRLQEAMKTNDPDQMQRLVDENVTASYGDKEVTGREEFKKNNRELLKRVDHVNIHDVTVSGEEMVLDASVKHDGREHRIRVRAVVRDGRIKSLKIHDG | 0.494

Row | Sequence | protease stability score
19 | DEQVQKQFKEAMRNREKGDKDKVVENFDKHVKVSVGDRTYHGMDDIARRQNEHMKEIRVEYRDVKMSVDNGKIVIHVRQQLEDNGEPREFSYTAEANATNGRIKSYRVDMDPEQVREVDR | -0.215
20 | DPKRVRQVAKEVAKAFLNGDKDKVKKYGDPNVKAKVLDEETQGVEQIMRELEKFMKLGVQYETKEVREEGDYVEVHTEYRDGDTTAKMTVIYKARDGKVEHLEVHYDRDARKIFRKG | 0.144
21 | DEHKHAEQHVKELIDALETGDPEKVRKNADEDVSAVYGDTTLQGTDQVVKAVHDIRNRYDSVRVEIKTVHIQNGRVVVTATVVLNQNGKNDTVSANIQLKVDNGRFKLVHDQLG | 0.739
22 | DEEERLRTILKLFEEALKHNDEDRLRKLADKDVRMRVGDKEYRGKEKFADFMRKLRTKADKVRIQIKQVNIQGNHNTMDITLVFNVNGNNNRFKVNFVFDIRGDSLKLKSATVK | 1.32
23 | DHERVKDHATDLAKILRQNNERELKKLADKDVHFQIGDKTYHGREKFEEWVHELINTVDHIRITDFDVDGDRVRIDADFDINGKTVRVVIVVKLKNGKIKSQKVQFRDKDLQRKFNS | -0.152
24 | DTENVKKATDYVHALNTGDEHRVKELMDPNARIRYGDKEVKGHDEIAKTLKTERDQSRVEFDIKRVEHQGNKVSIDLNFRKNQNGQPRSTKVNITVVFHNGKIKEINIQTDG | 1.59
25 | DEDKLDHLARKAAEIMVQGDPDKFRDMFDPNAKLRYGDKELRGREEADKAIEEMQKRVDSSDVEDITAHNGRANAVLVLNHNGRHKRFVLVVDVRNGRATKASMHDD | -0.062
26 | DENAVRVVKELWKALNHGNPDRVQQLADKDARVQVGDKDVHGREKMAKLVDTLKKEIRMDIKVHSISASNGRAKIDFKADEENNGKPQTYEATANVTIHNGKVVSMRVNKDQ | -0.428
27 | DEKKLLDLARVALEYLQRGNSDQFAKMLDEGGQMNVGDTQINGSDQVKKYVKKFKDQGVHVEYKEQEEKGDTVTVKTEAELGDAKVTFEVHYVAKGDRVERVEVRMNKEQITEFKKS | 0.272
28 | DSKELARRFHTELLENLRHNDSERLRRLLDEDARVHVGDKEVHGREQFADEQTKIMEHFDRVELRIREVTIEEGRVKVLIHFDADNNGEKHTDNSEVTFDNQGDKLTNKTQHES | -0.13
29 | DEDHEAQRFFDHFEEVVQTGDPDQAKQLIDKNATAKYGDQEYHGWEDVHKHWLRLRRQADHIKFEVDDVRATNGRYEIQFVVIIDTNGNENTRRYRLQAQEDNGRLRVQNLTQQ | 1.49
30 | DEEDFNNAQSMIKDEEQGDEEQITRNLDPNVKIRVGDKRLHGRENYAREVARKARRIRVEVHIRSVSHSGNHIRIDVEVHEQQNGKPDHSRFVVLMHYNNGTVKKAQFDDTD | 0.103
31 | DEREMKQFIELMKQKQTGNEHHVREMFDPNAQIKVGDKTVHGKDNIREQAHRERKEMREDFRIESLDHDGERVVIKYEVQQNHNGRPKTYDVEAEAEVHNGHFKFVSVDNTE | -0.399
32 | DDDAIKRFHEQVDNEQHNNEEEQEKNVDPNATVNVGDKTYHGREKWREVVKRENEEMRVKYQHVTFRRHPGRVIVRFRIVNDHNGKPTETDVNANYQMHNGRIRQVNRRTDG | 0.162
33 | DEEQLKTFQQAMRDEEHGNEQRVRDLFDPNARVVYGDKVVHGREEMVKKLKRRKDEMRVELRVREYKVEEDHMSATLEVINDHNGKPDTDKQTVEARMNGDQFEQVNIQKDS | 0.17
34 | DEKRLREIATRIVDALKTNNPEDFQKQLDEDAEVSIGDKTVRGQKQIVKMMDEFNSRVDEIDFKSYTAEGNQVVVNAVFNHNGRQQHLHFVFVFHNGKAKTVKAESS | 1.12
35 | DDHKLAEDIIQEFHEAMERGDPDQIQKLADKDVTINYGDKRIRGRETATRFWREVMDRIDHVEVTIRELRVKGDKIQFVVLINQNHNGQTTNRHVEASVEVHGDKYRNKSFQFQ | 0.35
36 | DEEDLKRVVDILHQNDPDQMIEMADENVKLEVGDKEFHGREEFSKFQRRIRDAVDHVEVKSLSHHNGRINMTFVLQINGRRIEFSAVVRVHNGKIKSMKVNATNEDDQSRFESQLS | 0.192
